Source: PMC6650551, “Identification of Dephospho-Coenzyme A (Dephospho-CoA) Kinase in Thermococcus kodakarensis and Elucidation of the Entire CoA Biosynthesis Pathway in Archaea” (mBio, 2019)

How the values were obtained:
purified protein [1] = substrate: CC(C)(COP(=O)(O)OP(=O)(O)OC[C@H]1O[C@@H](n2cnc3c(N)ncnc32)[C@H](O)[C@@H]1O)[C@@H](O)C(=O)NCCC(=O)NCCS; assay: purified protein; assay type: biochemical, Thermococcus kodakarensis; settings: 5 mM GTP varied dephospho-CoA, 5 mM MgCl2, 300 mM KCl, 50 mM Bicine pH 8.0, 80 °C
purified protein [2] = substrate: Nc1nc2c(ncn2[C@@H]2O[C@H](COP(=O)(O)OP(=O)(O)OP(=O)(O)O)[C@@H](O)[C@H]2O)c(=O)[nH]1; assay: purified protein; assay type: biochemical, Thermococcus kodakarensis; settings: 1 mM dephospho-CoA, varied GTP, 5 mM MgCl2, 300 mM KCl, 50 mM Bicine pH 8.0, 80 °C

B1: TK1697 protein (Tk-DPCK) (Thermococcus kodakarensis KOD1) (protein)
chain: MKMFFRLTRELRDELKRPLGELVRGPIPEPYLKVRGELEKHPVVTVGDVVTENVLKIGVKPIIALYDLKTKRKEYSPEIEDTAVFLTVTNPPGTITKALLDTVRKAFGLAERGRNVHILVSGEEDLAAIPAVLYAPLGTLVLYGQPDEGVVLIKVTPECKRRCAKILASMEVVRDGD
notes: full-length gene in pET21a(+) (NdeI/EcoRI, own stop codon, untagged), expressed in E. coli BL21-CodonPlus(DE3)-RIL; calculated 19,657 Da
Km (purified protein [1]): 140 ± 20 µM | Vmax (purified protein [1]): 17 µmol/min/mg | kcat (purified protein [1]): 5.57 s⁻¹ | kcat/Km (purified protein [1]): 40400 M⁻¹ s⁻¹ | Km (purified protein [2]): 260 ± 60 µM | Vmax (purified protein [2]): 20.4 µmol/min/mg | kcat (purified protein [2]): 6.68 s⁻¹ | kcat/Km (purified protein [2]): 25700 M⁻¹ s⁻¹
